According to the RNAGym collection of RNA variant scans (doi:10.1073/pnas.2313332121):

B1: TPR t1 (parent)
chain: GACCAAUCUGCCCUCAGAGCUCGAGAACAUCUUCGGAUGCAGAGGAGGCAGGCUUCGGUGGCGCGAUAGCGCCAACGUCCUCAACCUCCAAUGCAUCCCACCACAUGAUGAUGCCUGAAGAGCCUUGGUUUUUUG

Variants of: B1
Experiment: polymerase ribozyme fitness, log enrichment relative to wild type (log ratio); higher = more active; in vitro selection for triplet polymerase activity
How it was run: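 In triplicate, a single round of in vitro selection was run on each mutant library, PCR-built and transcribed, covering one subunit of a heterodimeric triplet polymerase ribozyme. Frozen incubation at −7 °C followed annealing with a biotinylated primer, partner subunit and triplets, and extended constructs were then gel-excised, streptavidin-captured and taken through RT-PCR. Fitness is the logarithm of genotype enrichment over wild-type enrichment, from inverse-variance-weighted replicate averages of Illumina-sequenced inputs and outputs. […] only genotypes with ≥10 input reads and ≥1 read per output were kept.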

Point of comparison: U7A A43U C70G, “polymerase ribozyme fitness (log ratio)” value -6.28. Against it:
- U7A A37U C70G U78A — higher, -3.04
- U7A U21C C70U G71C A90G — higher, -2.31
- U7A C34A C53A — higher, -2.31
- U7A G48U C94G U116C G120A — higher, -2.95
- U7A C12G A18G G44A G52U — higher, -5.51
- U7A C86G — higher, -0.205
- U7A U9G C82G — higher, -0.227
- U7A U9A C20U U38A G47U C56A G60U C72G C114A A121U C123U — higher, -4.89
- U7A G10C C56U C62U C80A A84U G110A C124A U133A — lower, -7.38
- U7A G39A A50U C53G U130C — higher, -4.47
- U7A C49U G71U — higher, -0.851
- U7A C11G C12U A18C A29G G47U G60C — higher, -5.79
- U7A C73G C80G — higher, -6.07
- U7A G19U U87G — higher, -3.3
- U7A C12A G35A C53U — higher, -5.51
- U7A C53A — higher, -0.0334
- U7A C11G U55A — higher, 0.0928
- U7A G110C — higher, -3.41
- U7A A50U — higher, -0.856
- A6U U9G C40G G60U C80U U126C U131A — higher, -3.72
- U7A A50U C82U A111C — higher, -1.72
- U7A G63U C80A — higher, -4.19
- A6U U54C C72U — higher, 0.695
- A6U U109C C124A — higher, -5.26
- U7A C13U C22G A103C U130C — higher, -4.17
- U7A C22G C40U G42U C62G — higher, -6.04
- U7A C56A C94U — higher, -0.558
- U7A C56U — higher, 0.211
- U7A C11U A27U A90C C98U — lower, -7.09
- U7A C15A C101A U112A — higher, 0.0193
- U7A G120A — higher, 1.77
- U7A G120C — higher, 1.32
- U7A G45A C49G G71A C80U A84U C104U — higher, -4.66
- U7A G36U G45U C86U — higher, -3.34
- U7A A27U A50U A74C C101U — higher, -4.66
- U7A C11A G117A — higher, -2.2
- U7A G10U G93A — higher, -0.792
- A6U U92A — higher, -2.82
- U7A C97A C101U U112C — higher, -2.6
- U7A C12U A46U G58A — higher, -0.311
- U7A U9G C73U C79G A84G U96C — higher, -2.27
- U7A C13U C15U G44U G77U — higher, -2.35
- U7A G36C A37G C97U G113C — higher, -3.07
- U7A G122A — higher, -0.674
- U7A G122U — higher, -1.47
- U7A G17U — higher, -1.25
- A6U G93A — higher, -0.555
- A6U G107U — higher, -3.94
- A6U U38G C73U U125A — higher, -1.49
- U7A C40U U54A C56A C73A G77U G117A G122A — higher, -3.15
- U7A C40U G110A — higher, -1.33
- A6U G71C — higher, -0.895
- U7A G36A A43U U54A C101U U112A — lower, -6.85
- U7A C70A G71A — higher, -2.52
- U7A C12U U59C — higher, 0.392
- U7A A18G C20A G39A C70U U116C G120U C123U C124A — lower, -6.7
- A6U U33A — higher, -4.02
- U7A U9G A46C C85G — higher, -1.96
- U7A G10A C53U G61C — higher, -0.31
- U7A C79G C123U — higher, 0.729
- U7A G39U G69A — higher, -3.24
- U7A G39U G69U — higher, 0.59
- A6U G71U G110A G127U U133G — higher, -2.25
- A6U U38G U59C C86A — higher, -3.66
- U7A C12A A83C — higher, -0.0554
- U7A C12G A18U G45U U54G — higher, -3.04
- U7A C8U G60C — higher, -0.91
- U7A A18U C22G C72A — higher, -4.55
- U7A U38C A41C G44U — higher, -3.32
- U7A U9C U67C C94G G113C — lower, -7.09
- U7A A16C — higher, -0.994
- U7A C53U A74C — higher, 0.916
- U7A G17U C62U A111C G135U — higher, -4.01
- A6U U9C G47A G63U — higher, -1.85
- U7A G47C — higher, -1.26
- U7A G47A — higher, -0.612
- U7A C62G G117U — higher, -5.82
- U7A A37U U54G G127A G128U — higher, -3.62
- A6U U9A A26U — higher, -1.87
- U7A G39C A74G G107U G120U U130C — higher, -4.02
- U7A G60A U81A — higher, -0.716
- U7A G44C — higher, -0.264
